Measured values from article PMC4670726 (2015).

B1: JIP1, full length, YFP fragment F1 fusion (BiFC) [not stated] / F2-JNK1 (K55R) (BiFC) [human] (parent complex)
chain 1: MAERESGGLGGGAASPPAASPFLGLHIASPPNFRLTHDISLEEFEDEDLSEITDECGISLQCKDTLSLRPPRAGLLSAGGGGAGSRLQAEMLQMDLIDATGDTPGAEDDEEDDDEERAARRPGAGPPKAESGQEPASRGQGQSQGQSQGPGSGDTYRPKRPTTLNLFPQVPRSQDTLNNNSLGKKHSWQDRVSRSSSPLKTGEQTPPHEHICLSDELPPQSGPAPTTDRGTSTDSPCRRSTATQMAPPGGPPAAPPGGRGHSHRDRIHYQADVRLEATEEIYLTPVQRPPDAAEPTSAFLPPTESRMSVSSDPDPAAYPSTAGRPHPSISEEEEGFDCLSSPERAEPPGGGWRGSLGEPPPPPRASLSSDTSALSYDSVKYTLVVDEHAQLELVSLRPCFGDYSDESDSATVYDNCASVSSPYESAIGEEYEEAPRPQPPACLSEDSTPDEPDVHFSKKFLNVFMSGRSRSSSAESFGLFSCIINGEEQEQTHRAIFRFVPRHEDELELEVDDPLLVELQAEDYWYEAYNMRTGARGVFPAYYAIEVTKEPEHMAALAKNSDWVDQFRVKFLGSVQVPYHKGNDVLCAAMQKIATTRRLTVHFNPPSSCVLEISVRGVKIGVKADDSQEAKGNKCSHFFQLKNISFCGYHPKNNKYFGFITKHPADHRFACHVFVSEDSTKALAESVGRAFQQFYKQFVEYTCPTEDIYLE
chain 2: MSRSKRDNNFYSVEIGDSTFTVLKRYQNLKPIGSGAQGIVCAAYDAILERNVAIRKLSRPFQNQTHAKRAYRELVLMKCVNHKNIIGLLNVFTPQKSLEEFQDVYIVMELMDANLCQVIQMELDHERMSYLLYQMLCGIKHLHSAGIIHRDLKPSNIVVKSDCTLKILDFGLARTAGTSFMMTPYVVTRYYRAPEVILGMGYKENVDLWSVGCIMGEMVCHKILFPGRDYIDQWNKVIEQLGTPCPEFMKKLQPTVRTYVENRPKYAGYSFEKLFPDVLFPADSEHNKLKASQARDLLSKMLVIDASKRISVDEALQHPYINVWYDPSEAEAPPPKIPDKQLDEREHTIEEWKELIYKEVMDLEERTKNGVIRGQPSPLGAAVINGSQHPSSSSSVNDVSSMSTDPTLASDTDSSLEAAAGPLGCCR

Variants of: B1
Test: BiFC (bimolecular fragment complementation), fluorescence measurement on co-transfected HEK293 cell populations; live HEK293 cells, transient co-transfection, N = 6; read off a plot

response [arbitrary units] | Variant
~1700 | chain 1 R160A, chain 1 P161A, chain 1 L164A, chain 1 L166A
